Test results: paper PMC5440646, “T Cell Costimulation by CD6 Is Dependent on Bivalent Binding of a GADS/SLP-76 Complex” (Molecular and Cellular Biology, 2017)
Where two headings read alike, the source gives them in different places. Values belong to the substance of their own block, whether it stands above or below them.

Columns and labels:
[1] = biological target: GADS (UniProt O75791); experiment: CD6 MAb immunoprecipitation, Western blot; settings: reference: wild-type CD6-EGFP; sites Y629
[2] = biological target: SLP-76 (UniProt Q13094); experiment: CD6 MAb immunoprecipitation, Western blot; settings: reference: wild-type CD6-EGFP; sites Y662
[3] = biological target: SLP-76 proline-rich motif (Homo sapiens) (UniProt Q13094); settings: cited from earlier work
[4] = biological target: long CD6 peptide phosphorylated at Y629 (human); experiment: SPR; biotinylated long CD6 peptides immobilised at ~50 response units on streptavidin-coated CM5 chips, BIAcore 3000; SH2 domains injected at 10 μl/min at 37°C; equilibrium binding, 1:1 Langmuir
[5] = biological target: long CD6 peptide phosphorylated at Y629 and Y662 (human); experiment: as above
[6] = biological target: SLP-76 proline-rich motif (Homo sapiens) (UniProt Q13094); settings: cited from earlier work; remark: listed apart in the source
[7] = biological target: long CD6 peptide phosphorylated at Y662 (human); experiment: SPR; biotinylated long CD6 peptides immobilised at ~50 response units on streptavidin-coated CM5 chips, BIAcore 3000; SH2 domains injected at 10 μl/min at 37°C; equilibrium binding, 1:1 Langmuir
Sequence of long CD6 peptide phosphorylated at Y662 (human) (P30203 622-668): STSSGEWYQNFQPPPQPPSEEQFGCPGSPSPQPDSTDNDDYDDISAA

Sequence of long CD6 peptide phosphorylated at Y629 and Y662 (human) (P30203 622-668): as above
Sequence of GADS C-terminal SH3 (O75791 271-330): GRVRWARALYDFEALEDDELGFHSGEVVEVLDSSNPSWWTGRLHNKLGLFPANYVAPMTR
Sequence of GRB2 C-terminal SH3 (P62993 156-215): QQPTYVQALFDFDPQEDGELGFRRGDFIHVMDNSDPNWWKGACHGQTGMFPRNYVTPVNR
Sequence of long CD6 peptide phosphorylated at Y629 (human) (P30203 622-668): as the sequence (P30203 622-668) above

binding against the reference [1]: weaker
Substance: CD6 (from UniProt P30203) Y629F

binding against the reference [2]: weaker
Substance: CD6 (from UniProt P30203) Y662F

Substance: GADS C-terminal SH3 (from UniProt O75791)
Kd [3]: 200 nM

Kd [4]: 200 to 600 nM
Kd [5]: 100 to 2000 nM
Substance: GADS SH2 domain, His-tagged (from UniProt O75791 58-149) (domain or fragment)

Substance: GRB2 C-terminal SH3 (from UniProt P62993)
Kd [6]: 10000 nM

Kd [5]: 300 to 2000 nM
Kd [7]: 300 to 2000 nM
Substance: SLP-76 SH2 domain, His-tagged (from UniProt Q13094 422-530) (domain or fragment)
